Data published in patent US20220062416A1.

How the values were obtained:
[1] = biological target: PCSK9 antigen (SEQ ID NO: 53), human PCSK9 (human) (UniProt Q8NBP7); test: flow cytometry, PCSK9 left bound to CHO-LDLR cells (anti-His-FITC), control IgG 1 nM
[2] = biological target: PCSK9 antigen (SEQ ID NO: 53), human PCSK9 (human) (UniProt Q8NBP7); test: flow cytometry, PCSK9 left bound to CHO-LDLR cells (anti-His-FITC), control IgG 10 nM
[3] = biological target: PCSK9 antigen (SEQ ID NO: 53), human PCSK9 (human) (UniProt Q8NBP7); test: flow cytometry, PCSK9 left bound to CHO-LDLR cells (anti-His-FITC), control IgG 0.1 nM
[4] = biological target: PCSK9 antigen (SEQ ID NO: 53), human PCSK9 (human) (UniProt Q8NBP7); test: flow cytometry, PCSK9 left bound to CHO-LDLR cells (anti-His-FITC), control IgG 1000 nM
[5] = biological target: PCSK9 antigen (SEQ ID NO: 53), human PCSK9 (human) (UniProt Q8NBP7); test: flow cytometry, PCSK9 left bound to CHO-LDLR cells (anti-His-FITC), control IgG 100 nM

IgG (antibody) was tested, and the Fluorescence signal value [1] was 6730, the Fluorescence signal value [2] was 6960 and the Fluorescence signal value [3] was 7000. It also gave a Fluorescence signal value [4] of 8920 and a Fluorescence signal value [5] of 7520.
